# From paper PMC3285688, “Active Site Mutations Change the Cleavage Specificity of Neprilysin” (PLoS ONE, 2012)
# Where “and” joins values, the source holds several entries; their conditions need not be identical. Equal entries are not always repeated. Entries after “also recorded” stand apart in the source; their conditions may differ.
# B1: NEP^F563L: neprilysin active site mutant, Phe563 to leucine (protein, UniProt P08473 2-750, looked up, variant F563L)
# Neprilysin: GKSESQMDITDINTPKPKKKQRWTPLEISLSVLVLLLTIIAVTMIALYATYDDGICKSSDCIKSAARLIQNMDATTEPCTDFFKYACGGWLKRNVIPETSSRYGNFDILRDELEVVLKDVLQEPKTEDIVAVQKAKALYRSCINESAIDSRGGEPLLKLLPDIYGWPVATENWEQKYGASWTAEKAIAQLNSKYGKKVLINLFVGTDDKNSVNHVIHIDQPRLGLPSRDYYECTGIYKEACTAYVDFMISVARLIRQEERLPIDENQLALEMNKVMELEKEIANATAKPEDRNDPMLLYNKMTLAQIQNNFSLEINGKPFSWLNFTNEIMSTVNISITNEEDVVVYAPEYLTKLKPILTKYSARDLQNLMSWRFIMDLVSSLSRTYKESRNAFRKALYGTTSETATWRRCANYVNGNMENAVGRLYVEAAFAGESKHVVEDLIAQIREVFIQTLDDLTWMDAETKKRAEEKALAIKERIGYPDDIVSNDNKLNNEYLELNYKEDEYFENIIQNLKFSQSKQLKKLREKVDKDEWISGAAVVNAFYSSGRNQIVFPAGILQPPLFSAQQSNSLNYGGIGMVIGHEITHGFDDNGRNFNKDGDLVDWWTQQSASNFKEQSQCMVYQYGNFSWDLAGGQHLNGINTLGENIADNGGLGQAYRAYQNYIKKNGEEKLLPGLDLNHKQLFFLNFAQVWCGTYRPEYAVNSIKTDVHSPGNFRIIGTLQNSAEFSEAFHCRKNSYMNPEKKCRVW
# Legend:
# Format in all cases: biochemical
# [1] = Hydrolysis of synthetic substrate Glut-Ala-Ala-Phe-MNA by NEP and mutants (fluorogenic)
# insulin B chain [2] = experiment: Insulin B chain as alternate substrate (competitive) inhibitor of Glut-Ala-Ala-Phe-MNA hydrolysis (Dixon plot); conditions: insulin B chain 1 to 40 µM as competitive inhibitor of Glut-Ala-Ala-Phe-MNA hydrolysis by the enzyme form, 37°C, 20 mM MES, pH 6.5, ID50 converted to Ki
# Experimental: Kinetic constants for NEP and its mutants were obtained using the assay conditions noted above, but with Glut-Ala-Ala-Phe-MNA varied from 20 to 500 µM. Typically 12 data points were obtained. The data were fit to the Michaelis-Menten equation using Prism4 software. The Ki for insulin B chain was obtained by measuring the rate of Glut-Ala-Ala-Phe-MNA hydrolysis in the presence of varying concentrations of insulin B chain from 1 to 40 µM. Data were fit to a Dixon plot (1/rate versus [insulin B chain]) using Prism4 software and the ID50 obtained as the –x intercept, where ID50 corresponds to the concentration of insulin producing 50% inhibition. The actual Ki was obtained from the equation: ID50 = Ki (1+ [Glut-Ala-Ala-Phe-MNA]/KmGlut-Ala-Ala-Phe-MNA), [33].
# leu-ENK [3] = experiment: Rate of leu-ENK hydrolysis (HPLC)
# Experimental: (§1) Cleavage of physiological peptides was measured via reverse phase high performance liquid chromatography (HPLC) following incubation of the purified NEP or its mutants with 15 µM insulin B chain (Sigma Aldrich), 24 µM Aß1–40 (Anaspec), or 64 µM leu-ENK (Sigma) in 100 µL of 20 mM MES, pH 6.5, at 37°C. Reactions were run in triplicate. HPLC was carried out in a Vydac C4 column using a linear gradient from 0.1% trifluoroacetic acid (TFA) in 95% water, 5% acetonitrile to 0.1% TFA in 50% acetonitrile/water at a flow rate of 1 mL/min. Peptides and hydrolysis products were detected at 214 nm and quantified by measuring peak areas. Peptides obtained from HPLC were analyzed on an Applied Biosystems 4800 MALDI TOF/TOF Proteomics Analyzer at the University of Kentucky Proteomics core. This facility is supported in part by grant P20RR020171 from the NIH/NCRR.
# (§2) Statistical analysis comparing wild-type NEP and its mutants was performed with Prism 4 software using a two-tailed paired t-test with a 95% confidence interval.
# insulin B chain [4] = experiment: Rate of insulin B chain hydrolysis (HPLC)
# Experimental: as §1, §2
# Aß1–40 [5] = experiment: Rate of Aß1–40 hydrolysis (HPLC)
# Experimental: as §1, §2
# leu-ENK [6] = experiment: Dual substrate assay: leu-ENK hydrolysis in presence of insulin B chain; conditions: 15 µM insulin B chain and 64 µM leu-ENK together, 37°C, 20 mM MES buffer, pH 6.5
# Experimental: (§3) The rate of cleavage of a substrate mixture is determined by both the kcat for that substrate as well by the affinity for the substrate. […] This is expected, given that each peptide acts as a competitive inhibitor of the other. […] That is the ratio for leu-ENK/insulin B chain cleavage is 3 for NEP^S546E compared to 6 for wild-type NEP.
# as §1
# insulin B chain [7] = experiment: Dual substrate assay: insulin B chain hydrolysis in presence of leu-ENK; conditions: 15 µM insulin B chain and 64 µM leu-ENK together, 37°C, 20 mM MES buffer, pH 6.5
# Experimental: as §3, §1
# [8] = tested on: leu-ENK and insulin B chain; experiment: Dual substrate assay: substrate preference leu-ENK versus insulin B chain
# Experimental: as §3, §1
# insulin B chain [9] = experiment: Time course of product peak accumulation from insulin B chain
# Text: As a representative of the NEP^F563 and NEP^S546 mutants, we compared the cleavage profile of NEP^F563L and NEP^S546E to that of NEP using time course experiments, Figure 2 . By adjusting the amount of NEP mutant used, the rate of hydrolysis of insulin B chain by all NEP forms was virtually identical. […] Since rates were based on peak areas measured at 214 nm, which in turn is dependent on both the number of peptide bonds and the number of aromatic residues within a given peptide, only the observed rates of change for a particular peptide product can be compared between enzyme forms. A comparison of the rate of change of different peaks within the same enzyme form or between enzyme forms is not valid under our conditions of analysis.
# as §1
# Aß1–40 [10] = experiment: Time course of product peak accumulation from Aß1–40
# Experimental: Similar to the analysis conducted with insulin B chain, the linear rate of product accumulation was determined for each peak and normalized to the amount of protein in the reaction, Table 7 . Unlike the hydrolysis of insulin B chain, the hydrolysis of Aß1–40, even at the earliest time points, produced products resulting from multiple cleavage events. Out of the 12 identified product peaks, only 3 could be produced by a single cleavage. Rates for all cleavages were calculated and are given in Figure 4, B–D , but only the three putative primary cleavage sites can be compared.
# as §1
# [11] = 15 µM insulin B chain, 37°C, 20 mM MES, pH 6.5, 0-180 min, HPLC peak area 214 nm, linear phase
# [12] = 24 µM Aß1–40, 37°C, 20 mM MES, pH 6.5, 0-360 min, HPLC peak area, linear phase
molecule,measurement,setting,value
B1,"Activity relative to wild-type enzyme (Figure S2 legend, in words)",[1],same activity as wild-type enzyme
same,Specific Activity (Glut-Ala-Ala-Phe-MNA cleavage),"[1]; 100 µM Glut-Ala-Ala-Phe-MNA, 37°C, 20 mM MES buffer, pH 6.5, fluorescence ex 340 nm, em 425 nm",44 pmol/min/ng and 43.6 ± 0.1 pmol/min/ng
same,Km,"[1]; Glut-Ala-Ala-Phe-MNA 20 to 500 µM, 37°C, 20 mM MES buffer, pH 6.5, Michaelis-Menten fit",81 ± 11 µM
same,Ki,insulin B chain [2],1500 ± 300 nM
same,Rate of hydrolysis of leu-ENK,"leu-ENK [3]; 64 µM leu-ENK, 37°C, 20 mM MES buffer, pH 6.5, disappearance of substrate by HPLC, at least triplicate",1.57 ± 0.32 pmol/min/ng
same,leu-ENK cleavage rate relative to wild-type NEP rate,"leu-ENK [3]; 64 µM leu-ENK, pH 6.5, 37°C",approximately 80%
same,Activity for both Glut-Ala-Ala-Phe-MNA and leu-ENK (in words),leu-ENK [3]; versus wild-type,near wild-type levels of activity
same,Rate of hydrolysis of Insulin B Chain,"insulin B chain [4]; 15 µM insulin B chain, 37°C, 20 mM MES buffer, pH 6.5, disappearance of substrate by HPLC, at least triplicate",1.17 ± 0.18 pmol/min/ng
same,Insulin B chain hydrolysis rate relative to NEP,"insulin B chain [4]; overall rate, 15 µM insulin B chain",1.4 times
same,Preference for insulin B chain over Aß1–40,"insulin B chain [4]; relative to NEP, from separate single-substrate rates",greater than 2 fold
same,Rate of hydrolysis of Aß1–40,"Aß1–40 [5]; 24 µM Aß1–40, 37°C, 20 mM MES buffer, pH 6.5, disappearance of substrate by HPLC, at least triplicate",116 ± 4 fmol/min/ng
same,Aß1–40 hydrolysis rate relative to wild-type NEP,"Aß1–40 [5]; overall rate as fraction/times of wild-type rate, 24 µM Aß1–40",nearly half the rate of the wild-type enzyme
same,"leu-ENK hydrolysis rate, dual substrate assay",leu-ENK [6],0.97 ± 0.06 pmol/min/ng
same,"leu-ENK hydrolysis, activity relative to the uninhibited value",leu-ENK [6]; numbers in parenthesis,0.62
same,"Insulin B Chain hydrolysis rate, dual substrate assay",insulin B chain [7],0.19 ± 0.03 pmol/min/ng
same,Substrate preference leu-ENK/insulin B chain (in words),"[8]; dual substrate assay, versus wild-type",no change in overall substrate preference
same,Ratio leu-ENK insulin B chain,"[8]; ratio of rates, 15 µM insulin B chain and 64 µM leu-ENK together",5.1
same,Rate of accumulation of peak 1–5 (single cleavage H^5-L^6),insulin B chain [9]; [11],83 Δarea/min/ng
same,Rate of accumulation of peak 1–10 (single cleavage H^10-L^11),insulin B chain [9]; [11],135 Δarea/min/ng
same,Rate of accumulation of peak 1–11 (single cleavage L^11-V^12),insulin B chain [9]; [11],16 Δarea/min/ng
same,Rate of accumulation of peak 1–14 (single cleavage A^14-L^15),insulin B chain [9]; [11],266 Δarea/min/ng
same,Rate of accumulation of peak 1–16 (single cleavage Y^16-L^17),insulin B chain [9]; [11],25 Δarea/min/ng
same,"Rate of accumulation of peak 15–23 (two cleavages A^14-L^15, G^23-F^24)",insulin B chain [9]; [11],64 Δarea/min/ng
same,Rate of accumulation of peak 15–30 (single cleavage A^14-L^15),insulin B chain [9]; [11],282 Δarea/min/ng
same,"Rate of accumulation of peak 17–24 (two cleavages Y^16-L^17, F^24-F^25)",insulin B chain [9]; [11],25 Δarea/min/ng
same,Rate of accumulation of peak 17–30 (single cleavage Y^16-L^17),insulin B chain [9]; [11],112 Δarea/min/ng
same,Rate of accumulation of peak 24–30 (single cleavage G^23-F^24),insulin B chain [9]; [11],290 Δarea/min/ng
same,Unique or missing cleavage sites in insulin B chain versus NEP,"insulin B chain [9]; 30% substrate hydrolysis, HPLC profile",no unique or missing cleavage sites
same,Cleavage at A^14-L^15 in insulin B chain relative to NEP,insulin B chain [9]; times the NEP rate,~1.4
same,Cleavage at H^5-L^6 in insulin B chain relative to NEP,insulin B chain [9]; times the NEP rate,~1.4
same,Cleavage at H^10-L^11 in insulin B chain relative to NEP,insulin B chain [9]; times the NEP rate,0.8
same,Cleavage at L^11-V^12 in insulin B chain relative to NEP,insulin B chain [9]; times the NEP rate,0.2
same,Cleavage at Y^16-L^17 in insulin B chain relative to NEP,insulin B chain [9]; times the NEP rate,~0.7
same,Accumulation rate of peak Aß 1–9 (single cleavage G^9-Y^10),Aß1–40 [10]; [12],0 Δarea/min/ng
same,Accumulation rate of peak Aß 1–16 (single cleavage K^16-L^17),Aß1–40 [10]; [12],17 Δarea/min/ng
same,Accumulation rate of peak Aß 1–17 (single cleavage L^17-V^18),Aß1–40 [10]; [12],22 Δarea/min/ng
same,"Accumulation rate of peak Aß 4–9 (dual cleavages A^3-F^4, G^9-Y^10)",Aß1–40 [10]; [12],5 Δarea/min/ng
same,"Accumulation rate of peak Aß 4–16 (dual cleavages A^3-F^4, K^16-L^17)",Aß1–40 [10]; [12],5 Δarea/min/ng
same,"Accumulation rate of peak Aß 4–17 (dual cleavages A^3-F^4, L^17-V^18)",Aß1–40 [10]; [12],12 Δarea/min/ng
same,"Accumulation rate of peak Aß 10–16 (dual cleavages G^9-Y^10, K^16-L^17)",Aß1–40 [10]; [12],11 Δarea/min/ng
same,"Accumulation rate of peak Aß 10–17 (dual cleavages G^9-Y^10, L^17-V^18)",Aß1–40 [10]; [12],8 Δarea/min/ng
same,"Accumulation rate of peak Aß 12–17 (dual cleavages E^11-V^12, L^17-V^18)",Aß1–40 [10]; [12],1 Δarea/min/ng
same,"Accumulation rate of peak Aß 20–28 (dual cleavages F^19-F^20, K^28-G^29)",Aß1–40 [10]; [12],5 Δarea/min/ng
same,"Accumulation rate of peak Aß 20–29 (dual cleavages F^19-F^20, G^29-A^30)",Aß1–40 [10]; [12],6 Δarea/min/ng
same,"Accumulation rate of peak Aß 20–30 (dual cleavages F^19-F^20, A^30-I^31)",Aß1–40 [10]; [12],26 Δarea/min/ng
same,Presence of wild-type product peaks from Aß1–40 (in words),"Aß1–40 [10]; HPLC profile at ∼30% hydrolysis, Aß1–9 peak in case of NEP^F563L",the peak corresponding to Aß1–9 was not present
same,Cleavage at L^17-V^18 in Aß1–40 relative to wild-type NEP,Aß1–40 [10]; product Aß1–17,25%
same,Cleavage of the G^9-Y^10 bond in Aß1–40 (in words),"Aß1–40 [10]; versus NEP, inferred from Aß1–9, Aß10–17",much slower rate; also recorded: appears to cleave the G^9-Y^10 bond
